Values of other authors, collected in PMC12612446.

Biological target: HER2 (Homo sapiens) (UniProt P04626)

Q: For trastuzumab, which Kd is on record?
A: The Kd was 0.58 nM.
